From article doi:10.1101/2022.09.03.506457v1

Substrate: O=C(O)C[C@H](O)C(=O)O
Test: purified protein
Format: biochemical, Methanocaldococcus jannaschii
Details: pH 7.2, 50 mM Tris-HCl, 70 °C

B1: MjFH (MjFHαβ), holo, Fe-S reconstituted (Methanocaldococcus jannaschii DSM 2661) (protein)
chain 1: MKISDVVVELFREAAIYLPEDVKNALEEAYKKESSEISKNTLKAIIENNKIAEETQVPLCQDTGVPIVFLKIGKNINSSEIMKIIEEIKEGVKKATEEVPLRPNVVHPLTRENFKTNVGLNSPFINIEFDESLDREIEIIAFPKGAGSENMSALKMLKPSDGIEGIKNFVLETIANAGGKPCPPIVVGIGIGGTADVALKLAKKALLRKIGERHRDKEIANLEKELLEKINSLGIGAMGLGGDITALDVFIEIAGCHTASLPVGICIQCWADRRAIKRIKLDAKL
chain 2: MEYTFNKLTKKDVKKLKVGDIVYLNGKIYTARDEAHLKIIEMLKSNEKLPFDLNESIIYHAGPIMKKVNDSWVCVSIGPTTSARMNDVEEEFIKLTNISAIVGKGGMKKELLKTFEDYGVVYLAAPGGCAALLANSVKRVDNVYFLDELGMPEAVWELEVNNFGPLIVAMDSHGNSIYEEVNKKVYEKLNELIGL
Which Km does the source give for B1 here?
The Km was 1554 ± 169 µM.
